From publication PMC10786891, “Massively parallel profiling of RNA-targeting CRISPR-Cas13d”
Changes are numbered by the printed parent chain. In names and notes the source's numbering stands.

T1: EsCas13d, nuclease-dead (Eubacterium siraeum, UniProt B0MS50, R295A;H300A;R849A;H854A)
T1 sequence: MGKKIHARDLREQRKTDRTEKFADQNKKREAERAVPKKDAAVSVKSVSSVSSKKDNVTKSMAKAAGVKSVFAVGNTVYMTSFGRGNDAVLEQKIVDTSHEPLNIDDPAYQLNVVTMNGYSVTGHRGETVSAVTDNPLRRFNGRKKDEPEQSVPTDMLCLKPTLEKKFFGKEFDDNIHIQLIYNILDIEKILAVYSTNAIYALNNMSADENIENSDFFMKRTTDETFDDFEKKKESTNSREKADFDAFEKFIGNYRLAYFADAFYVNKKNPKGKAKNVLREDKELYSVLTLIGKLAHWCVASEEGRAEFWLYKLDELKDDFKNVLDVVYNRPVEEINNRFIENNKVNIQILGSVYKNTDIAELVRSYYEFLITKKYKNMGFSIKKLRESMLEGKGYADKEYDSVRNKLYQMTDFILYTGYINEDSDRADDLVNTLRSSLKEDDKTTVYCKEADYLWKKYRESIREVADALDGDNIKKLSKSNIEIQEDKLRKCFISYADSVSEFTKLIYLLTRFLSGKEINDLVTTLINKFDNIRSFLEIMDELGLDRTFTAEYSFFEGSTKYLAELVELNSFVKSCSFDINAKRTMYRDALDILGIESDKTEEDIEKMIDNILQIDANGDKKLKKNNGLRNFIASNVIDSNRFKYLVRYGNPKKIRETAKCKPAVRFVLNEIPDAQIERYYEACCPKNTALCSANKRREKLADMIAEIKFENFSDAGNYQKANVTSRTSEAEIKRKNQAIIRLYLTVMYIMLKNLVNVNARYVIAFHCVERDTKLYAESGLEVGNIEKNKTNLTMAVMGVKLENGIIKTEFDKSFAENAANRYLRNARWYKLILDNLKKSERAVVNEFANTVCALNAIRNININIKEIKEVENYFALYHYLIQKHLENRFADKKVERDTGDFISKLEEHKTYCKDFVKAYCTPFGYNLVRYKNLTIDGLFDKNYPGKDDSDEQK

B1: target 1 C6A,C21U (mixed)
RNA 1: CACCCGUGCAAAAAUGCAGGGGUCUAAAACUGAGCGGAUAACCUCUCUAUGG
RNA 2: GGGAAUGGAUCCACAUCUACGAAUUCGUACUAUAGAGAGGUUAUCAGCUCACCGAGAUCGGAAGAGCACACGU
B2: target 1 complement block 3-10 (mixed)
RNA 1: B1 RNA 1
RNA 2: B1 RNA 2 with U31C, U42A, A43U, U44A, C45G, A46G, G47C, C48G, U49A
B3: target 1 insA 3' of 12,insU 3' of 5 (mixed)
RNA 1: B1 RNA 1
RNA 2: GGGAAUGGAUCCACAUCUACGAAUUCGUACCAUAGAGAGGAUUAUCCGUCUCACCGAGAUCGGAAGAGCACACGU
B4: target 1 insC 3' of 22,insA 3' of 11 (mixed)
RNA 1: B1 RNA 1
RNA 2: GGGAAUGGAUCCACAUCUACGAAUUCGUACCCAUAGAGAGGUAUAUCCGCUCACCGAGAUCGGAAGAGCACACGU
B5: target 1 C2G,U8G (mixed)
RNA 1: B1 RNA 1
RNA 2: B1 RNA 2 with U31C, U44G, A46C, C50G
B6: target 1 del22 (mixed)
RNA 1: B1 RNA 1
RNA 2: GGGAAUGGAUCCACAUCUACGAAUUCGUACAUAGAGAGGUUAUCCGCUCACCGAGAUCGGAAGAGCACACGU
B7: target 1 C6U,A16C (mixed)
RNA 1: B1 RNA 1
RNA 2: B1 RNA 2 with U31C, A36C, A46U
B8: target 1 insA 3' of 12,insG 3' of 7 (mixed)
RNA 1: B1 RNA 1
RNA 2: B3 RNA 2 with C47G, G48C, U49G
B9: target 1 insA 3' of 19,insU 3' of 7 (mixed)
RNA 1: B1 RNA 1
RNA 2: B4 RNA 2 with C32A, A33U, U34A, A43U, U44A, A45U, U46C, C47U
B10: target 1 insA 3' of 22,insC 3' of 16 (mixed)
RNA 1: B1 RNA 1
RNA 2: B4 RNA 2 with C31A, G38C, A39G, G40A, U42G, A43U
B11: target 1 C6G,A14G (mixed)
RNA 1: B1 RNA 1
RNA 2: B1 RNA 2 with U31C, A38G, A46G
B12: target 1 U10G,G12C (mixed)
RNA 1: B1 RNA 1
RNA 2: B1 RNA 2 with U31C, G40C, U42G, A46C
B13: target 1 insA 3' of 11,insC 3' of 5 (mixed)
RNA 1: B1 RNA 1
RNA 2: B3 RNA 2 with A41U, U42A, U49C
B14: target 1 U8A,G12A (mixed)
RNA 1: B1 RNA 1
RNA 2: B1 RNA 2 with U31C, G40A, U44A, A46C
B15: target 1 C4U,G12C (mixed)
RNA 1: B1 RNA 1
RNA 2: B1 RNA 2 with U31C, G40C, A46C, C48U
B16: target 1 insC 3' of 20,insC 3' of 12 (mixed)
RNA 1: B1 RNA 1
RNA 2: B4 RNA 2 with C32A, A33C, U42C, A43U

biological target: T1, EsCas13d, nuclease-dead; assay: crRNA (strand 1, pre-loaded); Mg2+; 40 mM Tris-HCl pH 7.5, 150 mM NaCl, 6 mM MgCl2, 1 mM DTT, 0.1% Tween-20, 0.2 mg/ml BSA; 25 C; 10 min per concentration, then washed; details: tags: His6-TwinStrep-SUMO cleaved; N-terminal SNAP kept (SNAP-Surface 488); label: 3' end held by stalled T7 RNA polymerase

**Q.** B1 was tested. Which Kd did it give?
**A.** 6.48 ± 0.21 nM

**Q.** How did the Kd turn out when B2 was run?
**A.** 12.2 ± 0.34 nM

**Q.** With B3 as the binder, how does the Kd read?
**A.** 35.4 ± 2.8 nM

**Q.** For B4, which Kd is on record?
**A.** 33 ± 5 nM

**Q.** With B5 as the binder, how does the Kd read?
**A.** 17.4 ± 0.8 nM

**Q.** For B6, which Kd is on record?
**A.** 26.6 ± 1.7 nM

**Q.** B7 was tested. Which Kd did it give?
**A.** 40 ± 5 nM

**Q.** With B8 as the binder, how does the Kd read?
**A.** 27.7 ± 2 nM

**Q.** B9 was tested. Which Kd did it give?
**A.** 41.8 ± 2.3 nM

**Q.** For B10, which Kd is on record?
**A.** ~60 nM

**Q.** Which Kd does the source give for B11 here?
**A.** 13.5 ± 1.3 nM

**Q.** For B12, which Kd is on record?
**A.** 22.7 ± 1.3 nM

**Q.** With B13 as the binder, how does the Kd read?
**A.** 12.7 ± 1.2 nM

**Q.** For B14, which Kd is on record?
**A.** 8.6 ± 0.8 nM

**Q.** Which Kd does the source give for B15 here?
**A.** 22.4 ± 3.3 nM

**Q.** Which Kd does the source give for B16 here?
**A.** 11.9 ± 2.4 nM
